Measurements as given in the supplement of paper PMC9170038.

Tested on: K4 kissing-loop RNA reporter
Experiment: apparent KD of K4 kissing-loop reporter; higher = weaker reporter binding
Details: Eterna round: R107
Description: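 RNA-MaP round R107: designed RNA switches with theophylline, tryptophan, arginine or FMN aptamers are transcribed on-chip within common flanks. They are titrated with a labelled K4 kissing-loop RNA reporter in RNA-MaP buffer (100 mM Tris pH 7.5, 80 mM KCl, 4 mM MgCl2), without ligand or with the indicated ligand. Median apparent KD per design.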

[1] = input ligand: theophylline 20 uM
[2] = input ligand: tryptophan 2.4 mM
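Further: bound reporter read as fluorescence of individual clusters on recovered sequencing chips by microscopy, with normalized cluster intensities fitted with a binding model.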

| Sequence | apparent KD of K4 kissing-loop reporter (input ligand: FMN 200 uM) [nM] | apparent KD of K4 kissing-loop reporter (input ligand: arginine 13.2 mM) [nM] | apparent KD of K4 kissing-loop reporter (input ligand: none) [nM] | apparent KD of K4 kissing-loop reporter [1] [nM] | apparent KD of K4 kissing-loop reporter [2] [nM] |
| --- | --- | --- | --- | --- | --- |
| UGUGUUGUUUUGAUGUUUGGUGUUGCAUGGCAGGAUAUCGUAGAGGCGAGAAGGGCUUUUGAGCGGUAUGAGUGAUGUUUGUAGG [p,,mmullin] | 526 | 309 | 441 | 354 | 379 |
| UGAUAGGACAGAAGGAGCGGAAUGCUGUCCAAAAGGACAGCAAAUAUAAAAGGAGUGAUGUUCCAGGUAGGUCGCUGUCCUAUCU [ArgBX 20 #SwitchBubble #StaticStem] | 271 | 206 | 219 | 234 | 203 |
| CCGCUGUAGUGCAUUAAGUGAUGUUUAGUGCAGGAUAUCUGGAAACAGAGAAGGGCACGUACUCGACGAGGCCAAUACAGCGGUU | 319 | 290 | 335 | 310 | 358 |
| GGGAGUAGUGCGGCCGCCACUGUGAAAGAAGAAGAAUAUAGUGAUGUUAUAUAGGAAUAAAAGAAUAGGACCGGGCAUUAGAUUU [SSTRyptB.R] | 334 | 231 | 134 | 113 | 139 |
| CCAUCGCUAUUCGAUACCAGUCAGGAGGUCUAUGACCUCCUAAUGGAGUGAUGUUCCUUAGACCCUUGGCAGCGAAUAGUGAUGG [#01 K4 Theophylline B Same State] | 509 | 480 | 569 | 338 | 534 |
| GCCGUAGAUUGAAGGAGCGAGGCUAAUUAAAGACCGAGUGAUGUUCGGGAGCGUGAAACUCCUCAGGUAGGUCGCAAUCUACGGC | 217 | 180 | 204 | 186 | 180 |
| AGACUAUCGUCAAAGACGGUAGUCAAAAGUGAGGAUAUAAGUGAUGUUAGAAGGCACUAAGACUGUAUCGAAUAGAUACGGUCAA [FmnA 2 #K4BetweenAptamer #OpenEnded] | 1450 | 425 | 721 | 534 | 600 |
| UCUGGAGCAUAUGAUACCAGCAGUGAGAGACAGGAAGUAUAGUGAUGUUAUAUGAGAGAAUGCCCUUGGCAGCGUGUGCAGUGGC [SSTheophylB.P] | 104 | 96.5 | 65 | 94.9 | 59.7 |
| UAAAUAAUUCAAGGAUAUGUUUUCUAUUUCGAGUGAUGUUCGGUCUUAAUAAAUUUAAUAGAUUAUACAGAAGGUGAUGGAUAGU [Astrostest] | 162 | 164 | 130 | 188 | 99.8 |
| GGGCCAUGGUUUUUGCUAGUGAUGUUAGACCGAGGACCGGUACGGCCGCCACUCGGCAAGUCUUUCGUUAGAUCUCUGGGAAGUC [theeternabot_exclusion_KL_Trp_A_45] | 810 | 661 | 1110 | 1160 | 578 |
| ACGUAGUUCUAGGAUACCAGCCAAGGAGCCCAGGACAAAAGUCCUGGCGCCAGUGAUGUUGGCCCUUGGCAGCCUAGAACUACGA [Omei KL Theo B Exc B v4] | 181 | 157 | 157 | 136 | 151 |
| CCUUCUCUUGAUAGUGAUGUUAUCAAGGGCAAGGAUAUCAUUUUAAUGAGAAGGUGUCCUUGAUAACAUGGAGGUCUGAAACAGA [Omei KL FMN A Exc C v6] | 151 | 86.6 | 114 | 169 | 95.5 |
| ACGUCCGGAUUAAUCGUGGGCAUGGUGGAUACCAGUUCUUUAAUGAACCCUUGGCAGCCACAUGAGUGAUGUUCAUGUGCGAUGA [KL-XTheo-A9 #analogue] | 145 | 117 | 141 | 187 | 140 |
| AACGUUUUGUGAAGGAGCGCGAAAAGCAGUGAUGUUGCUUACUUACAAUUUAGAUUUAACACGCAGGUAGGUCGCACAAUACGUA [JR_SSArginiB_Sub016] | 252 | 225 | 266 | 259 | 219 |
| AUCGAGCCCAUCGGUGAGUCAUUAGUUGAUACCAGAGCUAUUGGCCUCCCUUGGCAGCAAGUAAACCUGUUUAGUGAUGUUAAAC [theeternabot_exclusion_KL_Theo_A_15] | 178 | 150 | 168 | 162 | 157 |
| CAAUGAGUAUAAGAUGAUAUCAUCACAGAAGGAGCGAGUGAUAACUCAGGUAGGUCGCUGAAUUUGUCGAGUGAUGUUCGAUAGA [whbob_SS_Arginine_A_sa119] | 209 | 173 | 204 | 188 | 182 |
| CCAUCGCUAUUCGAUACCAGCCAAGAGGUCUUUGGCCUCUUAUUGGAGUGAUGUUCCAUUGGCCCUUGGCAGCGAAUAGUGAUGG [Theophylline B K4 17] | 356 | 192 | 343 | 541 | 275 |
| GCUUUCCGUGCGGCCGCCACUGAUCUAAGUGAUGUUUAGAUCGCAUUCGAACCGGUUACCCAGAGCAGGACCGGGCACCAGCGCU [theeternabot_exclusion_KL_Trp_B_35] | 97 | 84.9 | 89.8 | 90.1 | 91.9 |
| UGAUACCAGACGGCCGCCACUUCCGUAAGUCAAAGACUUACCAAGAGAAUCGUCCAGUGAUGUUGGAGGACCGGGUCUGGUAUCU [FiskerMod 7 - Jieux - Exclusion - Tryptophan B] | 931 | 654 | 979 | 849 | 872 |
| CUUGAAAUGACUGAUACCAGUGAAAAUCUAUGUAGUGAUGUUAUAUACUAAUUUAAUAAGCGCCCUUGGCAGCAGUAUGAAUUAU [AstrosExc-theB#18] | 657 | 260 | 532 | 561 | 445 |
| UUAGUCUAGAGAAGGAGCGAGUGAUGUUCGCAUGAUCUCAUGAUAUCAUGAGAUCGAAAUCCUCAGGUAGGUCGCUCUAGACAUU [AK6 Exc Arginine B] | 493 | 372 | 534 | 424 | 545 |
| CGCAGUGAUGUUGCGAGUUAAUUCAGGGAAGGAGCGCCACAGAUGGCAGGUAGGUCGCCCACGCAGUGAUGUUGCGUAUUCGGGU [Exclusion Arginine A GF 4] | 94.3 | 96.8 | 95.7 | 111 | 80.6 |

| Sequence | apparent KD of K4 kissing-loop reporter (input ligand: FMN 200 uM) [nM] | apparent KD of K4 kissing-loop reporter (input ligand: arginine 13.2 mM) [nM] | apparent KD of K4 kissing-loop reporter (input ligand: none) [nM] | apparent KD of K4 kissing-loop reporter [1] [nM] | apparent KD of K4 kissing-loop reporter [2] [nM] |
| --- | --- | --- | --- | --- | --- |
| UCGGACCCUGGAGGAUAUGAGUCUAGUGAUGUUAGGCGGUCCAUGCCGGUGCGGCGUUAUGCCCUUUUAGAAGGCCAGGGUCCGA [#2 Exclusion - FMN B Attempt #14 (HarryS)] | 143 | 78.8 | 107 | 102 | 112 |
| GCUAGUGCCCGCUCGAAAGAGCGUGUGUGUAAGGAUAUCUAGUAAUAGAGAAGGUACGGAGUGAUGUUCCCACACGGGCACUAGC | 705 | 600 | 800 | 779 | 1060 |
| AAGUGUGUGGCGGCCGCCACUAGUAUCCAGUGAUGUUGGAGAUAUCACGUAAGUGAUAUCCUACAUAGGACCGGGCCAUAUAGAA [Same State - Tryptophan B (Freestyle 20)] | 392 | 391 | 337 | 540 | 510 |
| CGUGAGUGAUGUUCACGAUGCUUCAAUCUAGAGGAUAUUCACGAUCGAAGAAGGCUGGACAAGUGCUGUCUCAUGACAGAUAAGG [FMN A SS t4] | 161 | 253 | 287 | 298 | 237 |
| CGAGUGAUGUUCGUUCGUUUAUUUUUUUGACAGGAUAUGCGGAAACGCAGAAGGGUCACCUUUGAGUUAAAAGAAUUUACGUUAU [Ex FMN A 25] | 460 | 475 | 576 | 465 | 414 |
| AUAUACCAGUGAUGUUGGUAUACUAUCGAUACCAGUAGAUACCAAUACCCUUGGCAGCGAUAAGACCGUACUGUAGCCAGUACUU [Theo A SS t4] | 250 | 191 | 255 | 340 | 225 |
| GGUAGCAUGGCGGCCGCCACUUCAAGUGGAGUGAUGUUCCGCGGCAUCGCGAAAGCGAUGCCUGGAAGGACCGGGCCAUGCUACC | 1090 | 858 | 924 | 797 | 306 |
| GGGAGUAGUGCGGCCGCCACUGUGAAAGAAGAAGAAUAUAGUGAUGUUAUAUAGGAAAUAAAGAAUAGGACCGGGCAUUAGAUUU [SSTRyptB.L] | 282 | 190 | 221 | 186 | 161 |
| AUUUUAGAGUGAUGUUCUAUUUGAUCAGAUACCAGACAAUUAUAAGUCCCUUGGCAGCUGUAGCCGAUAAAUUUAAUUAAUUUAA [JR_ExcTheophyA_Sub012] | 132 | 223 | 158 | 205 | 130 |
| GUAGCACUUGAUAGUGAUGUUAGCAAGGGCAAGGAUAUCAUCUCAAUGAGAAGGUGUCCUUGCUAACAGCUACGGGAAUAUCCCA [Omei KL FMN A Exc D v5] | 173 | 424 | 577 | 579 | 630 |
| AUCUCGGUAUCAGAUACCAGACUAUCGAUACCGAGUGUAUCGGGUAGUGAUGUUACCAUAGUCCCUUGGCAGCUGGUAGUUCAUA [Theo B SS t9c] | 256 | 249 | 261 | 280 | 213 |
| UCCAUGCGCGCACGGUACUUGCCCGCAUAUCGAGGACCGGUACGGCCGCCACUCGUGCCAGUGAUGUUGGCCGGAGAGCCUUAUG [theeternabot_sameState_KL_Trp_A_22] | 476 | 349 | 475 | 449 | 524 |
| GGACGAGUGAUGUUCGUUAUUAUGCAUUCAGAGGAUAUAGGAUUAGCUAGAAGGCUGAAUCAAUCUUCGAGUGAUGUUCGAGGAU [Same State FMN A GF 10] | 146 | 146 | 154 | 151 | 142 |
| AGAACUGUCUGAGAUACCAGCCAGGAAGUGAUGUUUCCAGCUCGACGAAAGUCGAGCCAUGGCCCUUGGCAGCUCAGACAGUUCA [Omei KL Theo B SS A v4] | 178 | 147 | 149 | 118 | 166 |
| UAAGAAUAAGUAGCAGUGAUGUUGCUACUACGAGGACCGGUACGGCCGCCACUCGAGCCGUACCAACUGCUACAAGGUACGAAUA [(H1)-(H2)-(Trp1)-(Trp2)-(T)'-(H)'-(T)''] | 281 | 224 | 242 | 243 | 257 |
| ACAGAUGCUAGUGAUACCAGACUAGCACUACGUAAUAUGUCAAGUGAUGUUUGACAACUAGUCCCUUGGCAGCGCGAUACGUCUG [Theo B SS t2] | 297 | 353 | 295 | 305 | 261 |
| AGGUCACCAGGAAGGAGCGCCCUGACAGGUUGCUGCCGUGGGCAGUGAUGUUGCUCAGUCCGGCAGGUAGGUCGCCUGGUGACCU | 139 | 158 | 154 | 125 | 157 |
| CGAUACGGAAAUACGUGUCUCUAUUCAGAAGGAGCGUGUUUGUACACAGGUAGGUCGCUGAAAUUUAAACUAGUGAUGUUAGACU [JR_SSArginiA_Sub003] | 1160 | 816 | 1160 | 895 | 929 |
| AAGGGCCGGGCGGCCGCCACUGGUCGUGUACACGUACUAACCAGUGAUGUUGGUAUAGUACGCGACAGGACCGGGCCCGGCCCAA [Exclusion - Tryptophan B (Freestyle 30)] | 405 | 359 | 445 | 297 | 236 |
| AAGUGUCAUUAGACACACUGAUGUAUAAACUAGGAUAUGCUGAUAAGCAGAAGGAGUGAUGUUCCUUUCAUCAUCAGAAUUAAAU [KL-XFMN-A2] | 167 | 113 | 110 | 127 | 94.5 |
| GGCAUGGUGGCGCGGCUGCCAUGCGCUUGGGAGGAUAUGUUUCGUGACAGAAGGCCCAGUGAUGUUGGGUCUGUUCAAAAGGACU [Onrabe] | 447 | 149 | 133 | 137 | 113 |
